Source: the RNAGym collection of RNA variant scans (doi:10.1093/molbev/msab373)

B1: Azoarcus group I ribozyme (parent)
chain: GUGCCUUGCGCCGGGAAACCACGCAAGGGAUGGUGUCAAAUUCGGCGAAACCUAAGCGCCCGCCCGGGCGUAUGGCAACGCCGAGCCAAGCUUCGGCGCCUGCGCCGAUGAAGGUGUAGAGACUAGACGGCACCCACCUAAGGCAAACGCUAUGGUGAAGGCAUAGUCCAGGGAGUGGCGAAAGUCACACAAACCGG

Variants of: B1
Test: reverse-splicing fitness (ratio to wild type); higher = more active; in vitro selection; Mg2+ level not given
Method in brief: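 An in vitro group I ribozyme library with randomized positions was T7-transcribed and gel-purified. In triplicate, 10 pmol RNA in EPPS pH 7.5 was reacted with 50 pmoles of a 30-nt RNA substrate for 1 h at 37 °C across several added MgCl2 levels (1–48 mM), then stopped with EDTA. Products were reverse transcribed from a substrate-complementary primer, PCR-amplified and sequenced (HiSeq 4000). Fitness is a variant's read proportion after selection over that before, normalised to wild type.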
For C82G A111G A120C A145G C150A C169U U176C, the reverse-splicing fitness was 0.015.
In the case of C82G A111G A120C A145G C150A C169U U176G, the reverse-splicing fitness is reported as 0.00817.
C82G A111G A120C A145G C150A C169U U176A gave a reverse-splicing fitness of 0.0153.
C82G A111C C150G C169A showed a reverse-splicing fitness of 0.00894.
For C82G A111C C150G C169U, the reverse-splicing fitness was 0.00898.
Work on C82G A111C C150G C169G yielded a reverse-splicing fitness of 0.00655.
C82G A111C A145U C150A U176G gave a reverse-splicing fitness of 0.0105.
C82G A111C A145U C150A U176A gave a reverse-splicing fitness of 0.0202.
Variant C82G A111C A145U C150A U176C has a reverse-splicing fitness of 0.0248.
C82G A111G A120C A145U C150G C169G showed a reverse-splicing fitness of 0.00697.
Work on C82G A111G A120C A145U C150G C169A yielded a reverse-splicing fitness of 0.00918.
Variant C82G A111C A145U C150G U176A has a reverse-splicing fitness of 0.0124.
C82G A111C A145U C150G U176C gave a reverse-splicing fitness of 0.0214.
C82G A111C A145U C150G U176G gave a reverse-splicing fitness of 0.0052.
For C82G A111C A145U C150A C169G, the reverse-splicing fitness was 0.0077.
For C82G A111C A145U C150A C169A, the reverse-splicing fitness was 0.00994.
C82G A111C A145U C150A C169U showed a reverse-splicing fitness of 0.0112.
In the case of C82G A111C C150U C169U U176G, the reverse-splicing fitness is reported as 0.00854.
For C82G A111C C150U C169U U176A, the reverse-splicing fitness was 0.015.
C82G A111C C150U C169U U176C gave a reverse-splicing fitness of 0.0142.
Variant C82G A111G A120C A145G C150A C169A has a reverse-splicing fitness of 0.0118.
Variant C82G A111G A120C A145G C150A C169U has a reverse-splicing fitness of 0.0118.
With C82G A111G A120C A145G C150A C169G the reverse-splicing fitness was 0.0104.
For C82G A111G A120C A145C C150G C169A U176G, the reverse-splicing fitness was 0.00627.
C82G A111G A120C A145C C150G C169A U176C gave a reverse-splicing fitness of 0.0103.
For C82G A111G A120C A145C C150G C169A U176A, the reverse-splicing fitness was 0.0108.
With C82G A111C A145U C150U C169G U176A the reverse-splicing fitness was 0.0124.
In the case of C82G A111C A145U C150U C169G U176G, the reverse-splicing fitness is reported as 0.00868.
With C82G A111C A145U C150U C169G U176C the reverse-splicing fitness was 0.0196.
Work on C82G A111C A145G C150G U176A yielded a reverse-splicing fitness of 0.0138.
C82G A111C A145G C150G U176C showed a reverse-splicing fitness of 0.0214.
Work on C82G A111C A145G C150G U176G yielded a reverse-splicing fitness of 0.00754.
Work on C82G A111C A145U C150A C169A U176A yielded a reverse-splicing fitness of 0.0135.
Variant C82G A111C A145U C150A C169A U176C has a reverse-splicing fitness of 0.0134.
In the case of C82G A111C A145U C150A C169A U176G, the reverse-splicing fitness is reported as 0.00941.
For C82G A111G A120C A145G C169A U176G, the reverse-splicing fitness was 0.00503.
In the case of C82G A111G A120C A145G C169A U176C, the reverse-splicing fitness is reported as 0.0188.
In the case of C82G A111G A120C A145G C169A U176A, the reverse-splicing fitness is reported as 0.0151.
C82G A111C C150G C169U U176C showed a reverse-splicing fitness of 0.0127.
C82G A111C C150G C169U U176A gave a reverse-splicing fitness of 0.00763.
Variant C82G A111C C150G C169U U176G has a reverse-splicing fitness of 0.00599.
With C82G A111C A145G C150A U176C the reverse-splicing fitness was 0.0396.
With C82G A111C A145G C150A U176G the reverse-splicing fitness was 0.0116.
In the case of C82G A111C A145G C150A U176A, the reverse-splicing fitness is reported as 0.0244.
C82G A111C C169U showed a reverse-splicing fitness of 0.0148.
C82G A111C C169G showed a reverse-splicing fitness of 0.00928.
With C82G A111C C169A the reverse-splicing fitness was 0.00871.
In the case of C82G A111G A120C A145G C169U U176G, the reverse-splicing fitness is reported as 0.00492.
In the case of C82G A111G A120C A145G C169U U176C, the reverse-splicing fitness is reported as 0.0147.
C82G A111G A120C A145G C169U U176A gave a reverse-splicing fitness of 0.0142.
C82G A111G A120C A145C C150A C169G U176A showed a reverse-splicing fitness of 0.026.
With C82G A111G A120C A145C C150A C169G U176G the reverse-splicing fitness was 0.00633.
Variant C82G A111G A120C A145C C150A C169G U176C has a reverse-splicing fitness of 0.0173.
In the case of C82G A111G A120C A145G C150U C169G, the reverse-splicing fitness is reported as 0.00893.
In the case of C82G A111G A120C A145G C150U C169A, the reverse-splicing fitness is reported as 0.0104.
Work on C82G A111G A120C A145G C150U C169U yielded a reverse-splicing fitness of 0.016.
C82G A111C A145G U176G gave a reverse-splicing fitness of 0.0463.
C82G A111C A145G U176C showed a reverse-splicing fitness of 0.147.
For C82G A111C A145G U176A, the reverse-splicing fitness was 0.129.
Work on C82G A111G A120C A145G C150A U176C yielded a reverse-splicing fitness of 0.0254.
In the case of C82G A111G A120C A145G C150A U176G, the reverse-splicing fitness is reported as 0.0119.
Work on C82G A111G A120C A145G C150A U176A yielded a reverse-splicing fitness of 0.0144.
For C82G A111G A120C, the reverse-splicing fitness was 0.0886.
In the case of C82G A111C A145U C150U C169U U176G, the reverse-splicing fitness is reported as 0.00778.
C82G A111C A145U C150U C169U U176C showed a reverse-splicing fitness of 0.0115.
Work on C82G A111C A145U C150U C169U U176A yielded a reverse-splicing fitness of 0.0161.
With C82G A111C A145U the reverse-splicing fitness was 0.283.
For C82G A111G A120C A145G C150G C169A, the reverse-splicing fitness was 0.00978.
Variant C82G A111G A120C A145G C150G C169U has a reverse-splicing fitness of 0.00987.
Variant C82G A111G A120C A145G C150G C169G has a reverse-splicing fitness of 0.00764.
Variant C82G A111G A120C A145U C150G C169A U176G has a reverse-splicing fitness of 0.00589.
Work on C82G A111G A120C A145U C150G C169A U176A yielded a reverse-splicing fitness of 0.0119.
Variant C82G A111G A120C A145U C150G C169A U176C has a reverse-splicing fitness of 0.0134.
For C82G A111G A120C A145C C150U, the reverse-splicing fitness was 0.0209.
Variant C82G A111G A120C A145C C150G has a reverse-splicing fitness of 0.0108.
Work on C82G A111G A120C A145C C150A yielded a reverse-splicing fitness of 0.011.
C82G A111G showed a reverse-splicing fitness of 0.411.
With C82G A111G A120C A145C C150U C169G U176A the reverse-splicing fitness was 0.0242.
With C82G A111G A120C A145C C150U C169G U176C the reverse-splicing fitness was 0.0152.
For C82G A111G A120C A145C C150U C169G U176G, the reverse-splicing fitness was 0.0061.
C82G A111C C150U U176G showed a reverse-splicing fitness of 0.0217.
For C82G A111C C150U U176A, the reverse-splicing fitness was 0.0699.
With C82G A111C C150U U176C the reverse-splicing fitness was 0.0801.
Variant C82G A111C C150A U176G has a reverse-splicing fitness of 0.0116.
